Legend:
[1] = molecular target: rSTEAP1 (Six Transmembrane Epithelial Antigen of Prostate 1) (Oryctolagus cuniculus, UniProt G1SWI4); assay: fluorescence titration; assay type: binding
[2] = molecular target: rabbit STEAP1 (Six Transmembrane Epithelial Antigen of Prostate member 1) with residues 2-42 truncated (rabbit); assay: SEC
[3] = molecular target: rabbit STEAP1 (Six Transmembrane Epithelial Antigen of Prostate member 1) with residues 2-42 truncated (rabbit); assay: SEC-MALS

rSTEAP1 (Six Transmembrane Epithelial Antigen of Prostate 1), sequence (G1SWI4 43-352): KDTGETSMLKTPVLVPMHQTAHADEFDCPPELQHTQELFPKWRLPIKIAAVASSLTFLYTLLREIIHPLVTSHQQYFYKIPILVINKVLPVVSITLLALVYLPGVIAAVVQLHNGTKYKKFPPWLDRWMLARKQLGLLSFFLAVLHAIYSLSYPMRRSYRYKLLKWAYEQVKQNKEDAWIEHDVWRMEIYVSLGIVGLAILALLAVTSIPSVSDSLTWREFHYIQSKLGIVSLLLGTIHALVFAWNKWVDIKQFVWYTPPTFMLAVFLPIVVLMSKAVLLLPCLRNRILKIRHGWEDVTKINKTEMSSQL

Kd [1] [µM]	stoichiometry N [2]	stoichiometry N [3]	Compound
32.3 ± 1.3			Cc1cc2nc3c(=O)[nH]c(=O)nc-3n(C[C@H](O)[C@H](O)[C@H](O)COP(=O)(O)OP(=O)(O)OC[C@H]3O[C@@H](n4cnc5c(N)ncnc54)[C@H](O)[C@@H]3O)c2cc1C [FAD]
	3	3	rabbit STEAP1 (Six Transmembrane Epithelial Antigen of Prostate member 1) with residues 2-42 truncated (domain or fragment)

Reference: paper PMC7251975 (Biochemistry, 2016)
